The numbers were not newly measured in US20250241861A1, “Mechano-Sensitive Microcapsules For Drug Delivery” (The Trustees of the University of Pennsylvania, priority 2015, published 2025), which cites them from elsewhere.

Series [1] relates to MMP activity in chondrocytes. Particulars: 10 ng/ml, after inflammatory stimulation of chondrocytes.
The subject of series [2] is engineered cartilage. Particulars: 10 ng/ml, 5 days post-injury.

B1: TGF-β3: transforming growth factor beta, anabolic compound / chondrogenic factor (protein, UniProt P10600 301-412, looked up)
Transforming growth factor …: ALDTNYCFRNLEENCCVRPLYIDFRQDLGWKWVHEPKGYYANFCSGPCPYLRSADTTHSTVLGLYNTLNPEASASPCCVPQDLEPLTILYYVGRTPKVEQLSNMVVKSCKCS
With B1, in series [1], the MMP activity result is “reduce MMP activity”. Moreover, the “reduction of GAG loss compared to injured controls” value in series [2] is given as “about 30%”.
